# Data taken from patent US20260049138A1 (Chugai, published 2026).
# Positions count from the first letter of the chain named. Names may count otherwise.
# B1: GLS3000 N28H one-arm antibody (antibody, human IgG1, kappa, L234A L235A, N297A, name in Kabat numbering)
# heavy: QVQLVESGGGVVQPGRSLRLSCAASGFTFSNAWMHWVRQAPGKGLEWVAQIKAKSNNYATYYAESVKGRFTISRDDSKNSLYLQMNSLKTEDTAVYYCRYVHYGAYYGVDAWGQGTTVTVSSASTKGPSVFPLAPSSKSTSGGTAALGCLVKDYFPEPVTVSWNSGALTSGVHTFPAVLQSSGLYSLSSVVTVPSSSLGTQTYICNVNHKPSNTKVDKKVEPKSCDKTHTCPPCPAPEAAGGPSVFLFPPKPKDTLMISRTPEVTCVVVDVSHEDPEVKFNWYVDGVEVHNAKTKPREEQYASTYRVVSVLTVLHQDWLNGKEYKCKVSNKALPAPIEKTISKAKGQPREPQVYTLPPSRCELTKNQVSLSCAVKGFYPSDIAVEWESNGQPENNYKTTPPVLDSDGSFFLVSKLTVDKSRWQQGNVFSCSVMHEALHNHYTQKSLSLSPDYKDDDDK
# chain: EPKSSDKTHTCPPCPAPELLGGPSVFLFPPKPKDTLMISRTPEVTCVVVDVSHEDPEVKFNWYVDGVEVHNAKTKPREEQYNSTYRVVSVLTVLHQDWLNGKEYKCKVSNKALPAPIEKTISKAKGQPREPQVCTLPPSRDELTKNQVSLWCLVKGFYPSDIAVEWESNGQPENNYKTTPPVLDSDGSFFLYSKLTVDKSRWQQGNVFSCSVMHEALHNRYTQKSLSLSP
# light: DIVMTQSPLSLPVTPGEPASISCRSSQSLVHSHRNTYLHWYQQKPGQAPRLLIYKVSNRFSGVPDRFSGSGSGTDFTLKISRVEAEDVGVYYCGQGTQVPYTFGQGTKLEIKRTVAAPSVFIFPPSDEQLKSGTASVVCLLNNFYPREAKVQWKVDNALQSGNSQESVTEQDSKDSTYSLSSTLTLSKADYEKHKVYACEVTHQGLSSPVTKSFNRGEC
# B2: GLS3000 N30A one-arm antibody (antibody, human IgG1, kappa, L234A L235A, N297A, name in Kabat numbering)
# heavy: B1 heavy
# chain: B1 chain
# light: B1 light with H33N, N35A
# B3: GLS3000 N30L one-arm antibody (antibody, human IgG1, kappa, L234A L235A, N297A, name in Kabat numbering)
# heavy: B1 heavy
# chain: B1 chain
# light: B1 light with H33N, N35L
# B4: GLS3000 N28I one-arm antibody (antibody, human IgG1, kappa, L234A L235A, N297A, name in Kabat numbering)
# heavy: B1 heavy
# chain: B1 chain
# light: B1 light with H33I
# B5: GLS3000 N28P one-arm antibody (antibody, human IgG1, kappa, L234A L235A, N297A, name in Kabat numbering)
# heavy: B1 heavy
# chain: B1 chain
# light: B1 light with H33P
# B6: GLS3000 N30I one-arm antibody (antibody, human IgG1, kappa, L234A L235A, N297A, name in Kabat numbering)
# heavy: B1 heavy
# chain: B1 chain
# light: B1 light with H33N, N35I
# B7: GLS3000 N30M one-arm antibody (antibody, human IgG1, kappa, L234A L235A, N297A, name in Kabat numbering)
# heavy: B1 heavy
# chain: B1 chain
# light: B1 light with H33N, N35M
# B8: GLS3000 N30E one-arm antibody (antibody, human IgG1, kappa, L234A L235A, N297A, name in Kabat numbering)
# heavy: B1 heavy
# chain: B1 chain
# light: B1 light with H33N, N35E
# B9: GLS3000 N30K one-arm antibody (antibody, human IgG1, kappa, L234A L235A, N297A, name in Kabat numbering)
# heavy: B1 heavy
# chain: B1 chain
# light: B1 light with H33N, N35K
# B10: GLS3000 N28M one-arm antibody (antibody, human IgG1, kappa, L234A L235A, N297A, name in Kabat numbering)
# heavy: B1 heavy
# chain: B1 chain
# light: B1 light with H33M
# B11: GLS3000 N30D one-arm antibody (antibody, human IgG1, kappa, L234A L235A, N297A, name in Kabat numbering)
# heavy: B1 heavy
# chain: B1 chain
# light: B1 light with H33N, N35D
# B12: GLS3000 N30F one-arm antibody (antibody, human IgG1, kappa, L234A L235A, N297A, name in Kabat numbering)
# heavy: B1 heavy
# chain: B1 chain
# light: B1 light with H33N, N35F
# B13: GLS3000 N30G one-arm antibody (antibody, human IgG1, kappa, L234A L235A, N297A, name in Kabat numbering)
# heavy: B1 heavy
# chain: B1 chain
# light: B1 light with H33N, N35G
# B14: GLS3000 N30H one-arm antibody (antibody, human IgG1, kappa, L234A L235A, N297A, name in Kabat numbering)
# heavy: B1 heavy
# chain: B1 chain
# light: B1 light with H33N, N35H
# B15: GLS3000 N30P one-arm antibody (antibody, human IgG1, kappa, L234A L235A, N297A, name in Kabat numbering)
# heavy: B1 heavy
# chain: B1 chain
# light: B1 light with H33N, N35P
# B16: GLS3000 N28Y one-arm antibody (antibody, human IgG1, kappa, L234A L235A, N297A, name in Kabat numbering)
# heavy: B1 heavy
# chain: B1 chain
# light: B1 light with H33Y
# B17: GLS3000 N28W one-arm antibody (antibody, human IgG1, kappa, L234A L235A, N297A, name in Kabat numbering)
# heavy: B1 heavy
# chain: B1 chain
# light: B1 light with H33W
# B18: GLS3000 N28T one-arm antibody (antibody, human IgG1, kappa, L234A L235A, N297A, name in Kabat numbering)
# heavy: B1 heavy
# chain: B1 chain
# light: B1 light with H33T
# B19: GLS3000 N28S one-arm antibody (antibody, human IgG1, kappa, L234A L235A, N297A, name in Kabat numbering)
# heavy: B1 heavy
# chain: B1 chain
# light: B1 light with H33S
# B20: GLS3000 N28Q one-arm antibody (antibody, human IgG1, kappa, L234A L235A, N297A, name in Kabat numbering)
# heavy: B1 heavy
# chain: B1 chain
# light: B1 light with H33Q
# B21: GLS3000 N28L one-arm antibody (antibody, human IgG1, kappa, L234A L235A, N297A, name in Kabat numbering)
# heavy: B1 heavy
# chain: B1 chain
# light: B1 light with H33L
# B22: GLS3000 N28V one-arm antibody (antibody, human IgG1, kappa, L234A L235A, N297A, name in Kabat numbering)
# heavy: B1 heavy
# chain: B1 chain
# light: B1 light with H33V
# B23: GLS3000 N28K one-arm antibody (antibody, human IgG1, kappa, L234A L235A, N297A, name in Kabat numbering)
# heavy: B1 heavy
# chain: B1 chain
# light: B1 light with H33K
# Target: T1, CD3ε homodimer protein (human, UniProt P07766 23-126, limits assumed)
# T1 construct: also called CD3 (CD3ε)
# T1 sequence (P07766 23-126 limits assumed): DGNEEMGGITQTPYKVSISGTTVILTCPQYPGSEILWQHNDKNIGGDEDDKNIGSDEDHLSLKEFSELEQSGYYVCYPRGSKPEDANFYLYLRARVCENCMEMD
# Assay: SPR Biacore T200, CD3ε homodimer on chip;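 also: Light-chain single-residue variant antibodies injected over amine-coupled CD3ε homodimer on a CM4 chip at 25 °C, bound amount divided by that of the GLS3000-containing antibody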
row,ratio of amount bound vs unaltered GLS3000,Binder
1,0.42,B1
2,0.5,B2
3,0.7,B3
4,0.44,B4
5,0.36,B5
6,0.61,B6
7,0.8,B7
8,0.44,B8
9,1.65,B9
10,0.39,B10
11,0.34,B11
12,1.1,B12
13,0.47,B13
14,0.98,B14
15,0.31,B15
16,0.26,B16
17,0.41,B17
18,0.45,B18
19,0.32,B19
20,0.37,B20
21,0.39,B21
22,0.36,B22
23,0.44,B23
